# In patent US20240317871A1 (IMMUNOMIC THERAPEUTICS, published 2024):
# Residue numbers refer to the chain shown, from its start.
# T1: murine HVEM (murine, UniProt Q80WM9 39-206, limits assumed)
# T1 construct: also called Mouse
# T1 sequence (looked up): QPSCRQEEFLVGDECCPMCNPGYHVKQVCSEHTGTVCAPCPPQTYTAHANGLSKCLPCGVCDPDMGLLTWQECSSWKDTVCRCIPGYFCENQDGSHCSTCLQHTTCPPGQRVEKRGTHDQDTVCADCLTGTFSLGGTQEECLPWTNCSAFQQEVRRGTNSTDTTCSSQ
# T2: human HVEM (human, UniProt Q92956 39-202, limits assumed)
# T2 sequence (looked up): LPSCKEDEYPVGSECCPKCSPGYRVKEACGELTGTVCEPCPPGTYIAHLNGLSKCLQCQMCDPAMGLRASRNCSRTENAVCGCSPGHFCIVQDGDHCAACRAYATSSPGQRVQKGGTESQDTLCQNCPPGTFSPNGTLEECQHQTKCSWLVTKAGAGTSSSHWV
# T3: cynomolgus monkey HVEM (cynomolgus monkey, UniProt A0A2K5W0R1 39-203)
# T3 sequence: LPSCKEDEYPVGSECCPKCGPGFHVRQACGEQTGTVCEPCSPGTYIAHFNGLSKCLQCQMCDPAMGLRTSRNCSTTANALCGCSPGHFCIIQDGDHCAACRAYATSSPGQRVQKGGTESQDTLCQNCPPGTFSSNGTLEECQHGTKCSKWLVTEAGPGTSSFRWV
# T4: His-tagged human HVEM (human, UniProt Q92956 39-202, limits assumed)
# T4 construct: Analyte of the BLI assay, 200 nM in PBS; not shown: His tag
# T4 sequence (looked up): T2 sequence (looked up)
# B1: Ab_002 (H5S14-2A2A) (antibody, V domains shown)
# VH: QVQLQQPGAELVKPGTSVKMSCKASGYTFTSYWMHWVKQRPGQGLEWIGDIYPGSDSTNYNEKFKSKATLTVDTSSSTAYMQLSSLTSEDSAVYYCARSGYYGSYLDYWGQGTTLTVSS
# VL: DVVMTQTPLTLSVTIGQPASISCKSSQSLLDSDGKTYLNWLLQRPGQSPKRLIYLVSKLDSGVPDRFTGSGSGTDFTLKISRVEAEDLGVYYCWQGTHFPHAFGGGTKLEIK
# notes: also called Ab_2
# B2: Ab_003 (H5S14-3A3A) (antibody, V domains shown)
# VH: QIQLVQSGPELKKPGETVKISCKASGYTFTNYGVNWVKQAPGKDLKWMGWINTYTGEPTYADDFKGRFAFSLETSASTAYLQINNLKNEDMATYFCTSRSWVLWGQGTLVTVSA
# VL: QIVLTQSPAIMSASLGEEITLTCSASSSVSYMQWYQQKSGTSPKLLIYSTSNLASGVPSRFSGSGSGTFYSLTISSVEAEDAADYYCHQWSSYPTFGGGTELEI
# notes: also called Ab_3
# B3: Ab_007 (H5S14-6A6A) (antibody, V domains shown)
# VH: EVKLVESGGGLVQPGGSLRLSCATSGFTFTDYYMSWVRQTPGKALEWLGFIRNQANAYTTEYSVSVKGRFTISRDNSQSILYLQMNTLRVEDSATYYCARVPDYWGQGTTLTVSS
# VL: DIQMTQSPASQSASLGESVTITCLASQTIGTWLAWYQQKPGKSPQLLIYAATSLADGVPSRFSGSGSGTKFSFKISSLQAEDFVSYYCQQLHSTPYTFGGGTKLEIK
# notes: also called Ab_7
# B4: Ab_014 (H5S14-15A12A) (antibody, V domains shown)
# VH: QVQLKQSGPGLVQPSQSLSITCTVSGFSLTSYGVHWVRQSPGKGLEWLGVIWSGGSTDYNAAFICRLSISKDSSKSQVFFKMNSLQADDTAMYYCARNLGGSWVDYWGQGTSVTVSS
# VL: ETTVTQSPASLSVATGEKVTIRCITSTDIDDDMNWYQQKPGEPPKLLISEGNTLRPGVPSRFSSSGYGTDFVFTIENTLSEDVADYYCLQSDNMPYTFGGGTKLEIK
# notes: also called Ab_14
# B5: Ab_015 (H5S14-16A13A) (antibody, V domains shown)
# VH: EVQLVESGGGLVKPGGSLKLSCAASGFTFSDYYMYWVRQTPEKRLEWVATISDGGSYTYYPDSVKGRFTISRDNAKNNLYLQMSSLKSEDTAMYYCARDGNYYAMDYWGQGTSVTVSS
# VL: DVLMTQTPLSLPVSLGDQASISCRSSQSIVHSNGNTYLEWYLQKPGQSPKLLIYKVSNRFSGVPDRFSGSGSGTDFTLKISRVEAEDLGVYYCFQGSHVPWTFGGGTKLEIK
# notes: also called Ab_15
# B6: Ab_016 (H5S14-17A15A) (antibody, V domains shown)
# VH: QVQLQQSGAELVRPGTSVKMSCKAAGYTFTNYWIGWVKQRPGHGLEWIGDIYPGGGYTNYNEKFKGKATLTADTSSSTAYMQLSSLTSEDSAIYYCARNGNSLDYWGQGTTLTVSS
# VL: SIVMTQTPKFLLVSAGDRVTITCKASQSVSNDVAWYQQKPGQSPKLLIYYESNRYTGVPDRFTGSGYGTDFTFTISTVQAEDLAVYFCQQDYSSPWTFGGGTKLEIK
# notes: also called Ab_16
# B7: Ab_017 (H5S14-18A16A) (antibody, V domains shown)
# VH: EVQLVETGGGLVQPKGSLKLSCAASGFTFNTNAMNWVRQAPGKGLEWVARIRSKSNNYATYYADSVKDRFTISRDDSQSMLYLQMNNLKTEDTAMYYCVREGGYGNYPYFDYWGQGTTLTVSS
# VL: B6 VL with E51A
# notes: also called Ab_17
# B8: Ab_018 (H5S14-21A19A) (antibody, V domains shown)
# VH: QVQLQQPGSELVRPGASVKLSCKASGYTFTSYWMHWVKQRPGQGLEWIGNIYPGSGSTNYDEKFKSKATLTVDTSSSTAYMQLSSLTSEDSAVYYCTIYDGYYWGQGTLVTVSA
# VL: DIQMTQSPASLSVSVGETVTITCRASENIYSNLAWYQQKQGKSPQLLVYAATNLADGVPSRFSGSGSGTQYSLKINSLQSEDFGSYYCQHFWGTPRTFGGGTKLEIK
# notes: the values of that row are written under this molecule; also called Ab_18; Ab_018 and Ab_019
# B9: Ab_020 (H5S14-22A20A) (antibody, V domains shown)
# VH: EVQLQQSGPELVKPGASVKMSCKASGYTFTSYVMHWVKQKPGQGLEWIGYINPYNDGTKYNEKFKGKATLTSDKSSSTAYMELSSLTSEDSAVYYCARGIITTVIEPILYAMDYWGQGTSVTVSS
# VL: NIVLTQSPASLAVSLGQRATISCRASESVDSYGNSFMHWYQQKPGQPPKLLIYLASNLESGVPARFSGSGSRTDFTLTIDPVEADDAATYYCQQNNEDPYTFGGGTKLEIK
# notes: also called Ab_20
# B10: Ab_021 (H5S14-29A20A) (antibody, V domains shown)
# VH: B9 VH with I105V
# VL: B9 VL
# notes: also called Ab_21
# B11: Ab_023 (H5S14-27A23A) (antibody, V domains shown)
# VH: EVKLDETGGGLVQPGRPMKLSCVASGFTFSDYWMNWVRQSPEKGLEWVAQIRNKPYNYETYYSDSVKGRFTISRDDSKSSVYLQMNNLRAEDMGIYYCTWGNYWGQGTTLTVSS
# VL: DIKMTQSPSSMYASLGERVTITCKASQDINSYLSWFQQKPGKSPKTLIYRANRLVDGVPSRFSGSGSGQDYSLTISSLEYEDMGIYYCLQYDEFPWTFGGGTKLEIK
# notes: also called Ab_23
# B12: Ab_049 (H5S19-25A24A) (antibody, V domains shown)
# VH: QVQLQQSGAELMKPGASVKISCKATGYTFSSYWIEWVKQRPGHGLEWIGEILPGSGSTNYNEKFKGKATFTADTSSNTAYMQLSSLTSEDSAVYYCARYPRWGKIDYWGQGTTLTVSS
# VL: DIVMTQAAFSNPVTLGTSASISCRSSKSLLHSNGITYLYWYLQKPGQSPQLLIYQMSNLASGVPDRFSSSGSGTDFTLRISRVEAEDVGVYYCAQNLELPYTFGGGTKLEIK
# notes: also called Ab_49
# B13: Ab_056 (H5S19-11A9B) (antibody, V domains shown)
# VH: DVQLQESGPGLVNPSQSLSLTCTVTGYSITSDYAWNWIRQFPGNKLEWMGYISYSGNTGYNPSLKSRISITRDTSKNQFFLQLNSVTSEDTATYYCARWGLRIDYWGQGTTLTVSS
# VL: B11 VL with R18S, Y80F, W96F, G100S, I106M
# notes: also called Ab_56
# B14: Ab_057 (H5S19-5A7A) (antibody, V domains shown)
# VH: DVKLVESGGGLVKPGGSLKLSCAASGFTFSSYTMSWVRQTPEKRLEWVATISSGGSYTYYPDSVKGRFTISRDNAKNTLYLQMSSLKSEDTAMYYCTRGDDYGFDYWGQGTTLTVSS
# VL: B5 VL
# notes: also called Ab_57
# B15: Ab_059 (H5S19-3B10B) (antibody, V domains shown)
# VH: QIQLVQSGPELKKPGETVKISCKASGYTFTNFGVNWVKQAPGKGLKWMGWINTYTGEPTYADDFKGRFAFSLETSASTAYLRINNLKNEDTATYFCARSFYKNYAFWGQGTILTVSS
# VL: QIVLTQSPAIMSASPGEKVTLTCSASSSVDSSYLFWYQQKPGSSPKLWIYSTSNLASGVPARFSGSGSGTSYSLTISSMEAEDAASYFCHQWSSYPWTFGGGTILEI
# notes: also called Ab_59
# B16: Ab_084 (H5S20-51A40A) (antibody, V domains shown)
# VH: QVQLKQSGPGLVQPSQSLSITCTVSGFSLTSYGVHWVRQSPGKGLEWLGVIWRGGSTDYNAAFMSRLSITKDNSKSQVFFKMNSLQADDTAIYYCAKNRGYGEGYYAMDYWGQGTSVTVSS
# VL: DIVMTQSQKFMSTSVGDRVSVTCKASQNVGTNVAWYQQKPGQSPKALIYSASYRYSGVPDRFTGSGSGTDFTLTISNVQSEDLAEYFCQQYNSYPLTFGAGTKLELK
# notes: also called Ab_84
# B17: Ab_086 (H5S20-56A25A) (antibody, V domains shown)
# VH: EVKLVESGGGLVKPGGSLKLSCAASGFTFSSYGMSWVRQTPEKRLEWVATISGGGSYTFYPDSVKGRFTISRDNAKNNLYLQVSSLRSEDTALYYCIYDGSYWGQGTLVTVSA
# VL: not shown
# notes: also called Ab_86
# B18: Ab_022 (H5S14-23A21A) (antibody, V domains shown)
# VH: LVKTGASVKISCKASGYSFTGYYMHWVKQSHGKSLEWIGYISCYNGATSYNQKFKGKATFTVDTSSSTAYMQFNSLTSEDSAVYYCARTYYYGSSYGAMDYWGQGTSVTVSS
# VL: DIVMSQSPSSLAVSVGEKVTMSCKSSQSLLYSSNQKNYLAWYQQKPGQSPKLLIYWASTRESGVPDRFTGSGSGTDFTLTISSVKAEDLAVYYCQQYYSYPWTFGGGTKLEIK
# notes: also called Ab_22
# B19: Ab_044 (H5S15-30A26A) (antibody, V domains shown)
# VH: QVQLQQPGAELVKPGAPVKLSCKASGYTFTSYWMNWVKQRPGRGLEWIGRIDPSDSETHYNQKFKDKATLTVDKSSSTAYIQLSSLTSEDSAVYYCAREYYGNHFDYWGQGTTLTVSS
# VL: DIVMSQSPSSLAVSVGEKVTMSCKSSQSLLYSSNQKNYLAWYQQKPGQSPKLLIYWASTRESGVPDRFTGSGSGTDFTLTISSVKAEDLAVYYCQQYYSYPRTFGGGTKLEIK
# notes: also called Ab_44
# Target: T1, murine HVEM
# Assay: ELISA
row,Binder,ELISA signal
1,B1,0.043
2,B2,0.051
3,B3,0.042
4,B4,0.049
5,B5,0.042
6,B6,0.042
7,B7,0.044
8,B8,0.043
9,B9,0.043
10,B10,0.042
11,B11,0.042
12,B12,0.044
13,B13,0.043
14,B14,0.045
15,B15,0.043
16,B16,0.043
17,B17,0.044

# Target: T2, human HVEM
# Assay: ELISA
row,Binder,ELISA signal
1,B1,2.8
2,B3,2.56
3,B4,0.05
4,B5,0.045
5,B6,0.047
6,B7,0.051
7,B9,0.049
8,B10,0.046
9,B18,0.157
10,B11,0.045
11,B19,2.87
12,B15,0.462

# Target: T3, cynomolgus monkey HVEM
# Assay: ELISA
row,Binder,ELISA signal
1,B1,1.98
2,B2,2.29
3,B3,0.739
4,B4,0.064
5,B5,0.058
6,B6,0.061
7,B7,0.06
8,B8,0.059
9,B9,0.064
10,B10,0.061
11,B18,0.165
12,B11,0.057
13,B12,0.065
14,B13,0.06
15,B14,1.06
16,B16,0.061
17,B17,0.065

# Target: T4, His-tagged human HVEM
# Assay: BLI OctetRed96, mAb captured, 200 nM His-HVEM
# Method: Binding of antibodies to HVEM may also be determined by bio-layer interferometry (BLI) on an OctetRed96@ system (Sartorius). (See http://www.fortebio.com/bli_technology.html for general description of a BLI assay.) For this experiment, murine anti-human HVEM antibodies were captured from culture supernatant using anti-mouse IgG Fc capture and immobilized to dip and read biosensors. Sensors were then dipped into a solution of 200 nM His-tagged human HVEM in phosphate-buffered saline (PBS). Probes were dipped into PBS assay buffer and the dissociation rate (koff) was measured. The association rate (kₒₙ) and affinity (KD) were determined by curve fitting analysis.
Binder,Kd,koff,kon
B19,1.97 nM,0.00605 s⁻¹,3.08e+06 M⁻¹ s⁻¹
